# According to publication PMC2882252 (Journal of the American Chemical Society, 2009):
# Assays:
# N[C@H](CCC(=O)O)C(=O)O = experiment: purified protein; assay type: biochemical, Bacillus subtilis; conditions: active site
# [1] = biological target: glutamate racemase (RacE) (Bacillus subtilis, UniProt P94556); assay type: biochemical
# purified protein = substrate: N[C@@H](CCC(=O)O)C(=O)O; experiment: purified protein; conditions: active site, between Cys74 and Cys185
molecule,measurement,setting,value
glutamate racemase (RacE) T76A (Bacillus subtilis subsp. subtilis str. 168; T76A),Km,N[C@H](CCC(=O)O)C(=O)O,8.6 ± 1.4 mM
"O=C(O)c1cccc(C(=O)O)n1 [DPA, 2,6-pyridinedicarboxylic acid]",Ki,[1],1.97 ± 1.16 mM
glutamate racemase (RacE) (Bacillus subtilis subsp. subtilis str. 168) (protein) MLEQPIGVIDSGVGGLTVAKEIMRQLPKENIIYVGDTKRCPYGPRPEEEVLQYTWELTNYLLENHHIKMLVIACNTATAIALDDIQRSVGIPVVGVIQPGARAAIKVTDNQHIGVIGTENTIKSNAYEEALLALNPDLKVENLACPLLVPFVESGKFLDKTADEIVKTSLYPLKDTSIDSLILGCTHYPILKEAIQRYMGEHVNIISSGDETAREVSTILSYKGLLNQSPIAPDHQFLTTGARDQFAKIADDWFGHEVGHVECISLQEPIKR,Km,purified protein,14 ± 6 mM
